Measured values published in US20120269814A1 (Amgen, published 2012).
Positions count from the first letter of the chain named. Like-named read-outs stand apart in the source and are kept apart here.

T1: human c-Mpl (full length, on cells) (human, UniProt P40238 26-635)
T1 sequence: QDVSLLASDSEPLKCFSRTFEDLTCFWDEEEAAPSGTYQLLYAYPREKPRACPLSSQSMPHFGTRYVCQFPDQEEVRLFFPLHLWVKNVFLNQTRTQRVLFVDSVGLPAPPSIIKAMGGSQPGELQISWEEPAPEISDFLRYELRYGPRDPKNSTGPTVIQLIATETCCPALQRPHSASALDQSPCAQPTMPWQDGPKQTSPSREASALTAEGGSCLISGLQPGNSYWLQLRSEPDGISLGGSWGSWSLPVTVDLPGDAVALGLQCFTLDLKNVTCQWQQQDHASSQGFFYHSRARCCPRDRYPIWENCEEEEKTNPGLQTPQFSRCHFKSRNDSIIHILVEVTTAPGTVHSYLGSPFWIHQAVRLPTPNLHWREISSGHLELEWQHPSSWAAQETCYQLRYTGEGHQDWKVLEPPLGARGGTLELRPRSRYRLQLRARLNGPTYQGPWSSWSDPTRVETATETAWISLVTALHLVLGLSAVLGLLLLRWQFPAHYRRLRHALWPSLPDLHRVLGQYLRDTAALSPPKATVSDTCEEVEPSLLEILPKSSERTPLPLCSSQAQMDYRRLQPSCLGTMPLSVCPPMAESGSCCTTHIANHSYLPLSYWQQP

T2: rhu-c-Mpl (AA1-490-6H) (human, UniProt P40238 26-490)
T2 construct: Entire 490 amino acid extracellular domain with six C-terminal histidines, expressed in CHO cells; also called recombinant human c-Mpl protein; soluble c-Mpl
T2 sequence: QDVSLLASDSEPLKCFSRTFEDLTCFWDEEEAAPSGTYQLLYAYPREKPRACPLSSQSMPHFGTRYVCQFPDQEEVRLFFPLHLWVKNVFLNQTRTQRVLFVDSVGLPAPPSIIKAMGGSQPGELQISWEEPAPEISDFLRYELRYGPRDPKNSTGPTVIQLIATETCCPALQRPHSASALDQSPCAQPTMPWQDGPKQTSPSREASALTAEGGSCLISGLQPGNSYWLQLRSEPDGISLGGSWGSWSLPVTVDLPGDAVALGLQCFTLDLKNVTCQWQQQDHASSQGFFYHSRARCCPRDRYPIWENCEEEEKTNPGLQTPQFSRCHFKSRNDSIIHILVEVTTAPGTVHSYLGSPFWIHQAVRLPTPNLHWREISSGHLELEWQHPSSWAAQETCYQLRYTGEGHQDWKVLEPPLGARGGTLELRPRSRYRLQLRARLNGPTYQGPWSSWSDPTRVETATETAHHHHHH

B1: mAb 1.111 (antibody, IgG1, V domains shown)
VH: DVQLQESGPGLVKPSQSLSLTCTVTGYSITIDYTWNWIRQFPGNKLEWMGYITYSGSTDYNPSLKSRSSITRDTSMNQFFLQLNSVTTEDTATYYCARLGRRYALDYWGQGTSVTVSS
VL: DIQMTQSSSSFSVSLGDRVTITCKASEDIYIRLAWYQQKPGNAPRLLISAATSLETGIPSRFSGSGSGEDYTLTITSLQTEDVATYYCQQYWTTPWTFGGGTKLEIKR
notes: also called A4
B2: mAb 1.6 (antibody, IgG2b, V domains shown)
VH: B1 VH with I31S, D59S, S68N, M76K, A104T, L105M
VL: DIQMTQSSSSFSVSLGDRVTITCMASEDIYIRLAWYQQKPGNAPRLLISAATSLETGVPSRFSGSGSGKDYTLSITSLQTEDVGTYYCQQYWSSPWTFGGGTKLEIN
notes: An Alexa Fluor 647 conjugate was used for CD34+ cell staining; also called Ab 1.6.1; A1
B3: mAb 1.75 (antibody, IgG2b, V domains shown)
VH: EVQLVESGGGLVQPKGSLKLSCAASGFSFNTYAMNWVRQAPGKGLEWIAHIRSKSNNFATYYADSVKDRFSISRDASENILFLQMNNLKTEDTAMYYCVRQGGDFPMDYWGQGTSVTVSS
VL: QIVLTQSPAIMSASPGEKVTISCSASSSVSYMYWYQQKPGSSPKPWIYRTSNLASGVPARFSGSGSGTSYSLTISNMEAEDAAAYYCQQYHSYPTTFGGGTKLEVK
notes: also called A2
B4: mAb 1.169 (antibody, IgG1, V domains shown)
VH: QVQLQQSGPELVKPGASVKISCKASGYGFSSSWMNWVKQRPGKGLEWIGRIYPGDGETSYNGEFKGKATLTADKSSSTAYMQLSSLTSEDSAVYFCASYYEGGYWGQGTLVTVSA
VL: DIVMTQAAPSLPVTPGESVSISCRSSKSLLHSNGNTYLFWFLQRPGQSPHLLIYRMSNLASGVPDRFSGSGSGTAFTLRISRVEAEDVGVYYCMQHLEYPYTFGGGTKLEIKR
notes: also called A6
B5: mAb 1.36 (antibody, IgG1, V domains shown)
VH: QVQLQQSGPELVKPGASVKISCKASGYGFSNSWMNWVRQRPGKGLEWIGRIYPGDGETSYNGEFVGKATLTADKSSSTAYMHLSSLTSEDSAVYFCASYYEGGYWGQGTLVTVS
VL: B4 VL with L11V, F39Y, H50Q
notes: also called A5
B6: mAb 1.78 (antibody, IgG1, V domains shown)
VH: B4 VH with I20M, G28A, M34L, K38R, T58N, S59H, E63K, A79G, V111I
VL: DIVMTQAAPSIPVTPGESVSISCRSDKSLLHSNGNTYLFWFLQRPGQSPQLLIYRMSNLASGVPDRFSGSGSGTAFTLRISGVEAEDVGVYYCMQHLEYPYTFGGGTKLEIK
notes: also called A3

Experiments:
[1] = target: T1, human c-Mpl (full length, on cells); experiment: cell-based or functional assay
rhu-c-Mpl (AA1-490-6H) = target: T2, rhu-c-Mpl (AA1-490-6H); experiment: solution-equilibrium Biacore with soluble rhu-c-Mpl, KinExA Pro fit
Experimental: The affinities of these anti-c-Mpl mAbs to the soluble c-Mpl protein were determined in a solution-based Biacore analysis. Briefly, a fixed amount of rhu-c-Mpl was incubated with various concentrations of anti-c-Mpl mAbs at room temperature for ˜4 hours before being run over the same anti-c-Mpl mAbs immobilized at high density on a CM5 surface. In this assay the binding signal is proportional to the concentration of free rhu-c-Mpl at equilibrium with a given antibody concentration. The dissociation equilibrium constant (KD) was obtained from nonlinear regression of the competition curves using an n-curve one-site homogeneous binding model (KinExATM Pro software).

[2] = target: T1, human c-Mpl (full length, on cells); experiment: cell-based or functional assay; remark: listed apart in the source

Binder	IC50 (nM), inhibition of rhuTPO (26 pM)-driven proliferation of 32D-hu-c-Mpl cells (CellTiter-Glo) [1]	Kd (rhu-c-Mpl (AA1-490-6H))	IC50 (nM), inhibition of rhuTPO (26 pM)-driven proliferation of 32D-hu-c-Mpl cells (CellTiter-Glo) [2]
B1	0.12 nM	0.036 nM	–
B2	0.03 nM	0.036 nM	–
B3	0.05 nM	0.01 nM	–
B4	–	0.48 nM	5.32 nM
B5	–	0.45 nM	1.25 nM
B6	–	0.072 nM	0.23 nM
